Tests used:
[1] = biological target: GAGE12I (Lumier fusion, HEK293) (human); test: pull-down; Lumier (luminescence-based mammalian interactome mapping): protein A and Renilla luciferase fusions co-expressed in HEK293, lysed in 20 mM Tris-HCl pH 7.5, 250 mM NaCl, 1% Triton X-100, 10 mM EDTA, 10 mM DTT with Benzonase; protein A fusions isolated on IgG-coated magnetic beads …; luciferase bound/input normalised to a protein A dimer control and given as Z scores; both orientations
[2] = tested on: GAGE12I; test: EMSA; details: EMSA: 20 mM Tris pH 7.4, 50 mM NaCl, 1 mM DTT, 5 min or as indicated, 20 C, 1 pg/ul DNA. Calf thymus DNA-cellulose pull-downs (P1, P2; undefined DNA, not …)

Sequence of GAGE12I (Lumier fusion, HEK293) (human) (A1L429 whole entry, the tested form may be a part): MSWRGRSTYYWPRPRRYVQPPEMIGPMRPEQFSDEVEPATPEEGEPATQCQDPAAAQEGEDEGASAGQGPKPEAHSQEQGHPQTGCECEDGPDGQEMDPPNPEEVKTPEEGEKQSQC

Row | Z score [1] | Substance | K half [2]
1 | 3.4 to 5.3 | full-length GCL (Lumier fusion, HEK293) (from UniProt Q96IK5 1-515) (natural protein) | –
2 | – | pUC19 90-bp EcoRI-PvuII fragment | < 7.3 µM

— publication PMC3447759
